Test results reported in the DeepSol protein solubility set.

Assay: soluble on expression in E. coli; label from the status in PepcDB or PDB records

## MSSRAVSLFSKCGSRISQTRGKAHFTFQPSTTLPAGLENLEKTKMNLMQSVNEAMRIAMETDDSAVLFGEDVAFGGVFRCSLDLQKKFGKDRVFNTPLCEQGIAGFGIGVAAAGATAIAEIQFGDYIFPAYDQLVNEAAKFRYRSGNQFDCGKLTVRTTWGAVGHGALYHSQSPEANFTHTPGLKLVVPRGPVQAKGLLLSCIRDPNPCIFFEPKILYRLASEDVPTGDYTIPLGQAETVRSGKDLTLVAWGTQVHVALEAAQLAKEKLNADVEVIDLQTIQPWDEDHVVESVQKTGRLIVTHEAPISSGFGAEIASTVQKRCFLNLESPIDRVAGFDTPFPHVHEPFYLPTVHRVFDAIKKSVNY
  soluble on expression in E. coli: not soluble

## MMNWKQLISAKRFGMEEFHEERQENRSEFQRDYDRLIFSAPFRRLQNKTQVFPLPGSIFVHNRLTHSLEVSCVGRSLGNDVAKAILERQPELESSFLPEIGSIVSAACLAHDLGNPPFGHSGERAISTFFSEGKGQRLQEKQPDGEQLSPMEWEDLTHFEGNANAFRILTHQFEGRRRGGFVLTYSTLASIVKYPFSSSLAGKKSKFGFFVSEEESYRKIATELGLIQLSEQPLKYARHPLVYLVEAADDICYQMMDIEDAHKLKIITTDETKELLMAFFSEDRQSRLRSTFQIVNDINEQIAYLRSSVIGLLVRECTRVFLEHEQEILAGTFEGALIKHIAEGPAAAYNHCAEISLKRIYRSQDVLDIELAGFRIISTLLELMVDAVTLPGKEKAYSELLTNRVSDQYNIKSPVLYERIQAVLDYISGMTDVFALDLYRKINGNSLPAV
  soluble on expression in E. coli: not soluble

## MSLAGEVWLQTHHPDHPLLQTLINGGYHTFANTELQQRQAAGLPPFAHLALLRAEAKDTTSTQQFLATVRKHIPIDNAVECYGPMSAPMPRRAGYERYQLLLSSSQRNTLHRTLNVLIPAIHALPEARRVRWSLDVDPVDLYEGHHHHHH
  soluble on expression in E. coli: not soluble

## MISVTDLRPGTKVKMDGGLWECVEYQHQKLGRGGAKVVAKFKNLETGATVERTFNSGEKLEDIYVETRELQYLYPEGEEMVFMDLETYEQFAVPRSRVVGAEFFKEGMTALGDMYEGQPIKVTPPTVVELKVVDTPPGVRGDTVSGGSKPATLETGAVVQVPLFVEPGEVIKVDTRTGEYVGRA
  soluble on expression in E. coli: soluble

## MLPPGMVAAESDFYLRRLWGLPHEDLKSEPRYLATFTVGINQKANIDACVKKFSENFTIVLFHYDGRVTEWDEFEWSKTAIHISVRKQTKWWYAKRFLHPDIVARYDYIFVWDEDLGVEHFNAEEYVKMVKKHGLEISQPGLEPNQGLTWQMTKRRGDMEVHKITEERPGWCSDPHLPPCAAYVEIMAPVFSRNAWRCVWHVIQNDLVHGWGLDFALRRCVEPAHEKIGVVDSQWVVHQSFPSLGNQGEATDGKAPWQGVRDRCKKEWTMFQSRMANAEKDYFKSLQVEGSSNSTATTI
  soluble on expression in E. coli: soluble

## MEHNQLIAMITEAVMEQIRPLPKINQIPVAISNRHVHLSQEDAQTLFGPNYSFKIKKDLSQPGQYACEERVTLVGPKGVIENVRILGPVRPQTQVELSVSDGIKLGITPPVRDSGDLANSAGITLVGPSGSLTLPEGVIAAARHIHMHSTDAARFGVKDRDRVSVTAPGPRGLVFRETLIRVSHNFTLEMHIDIDEANAAALRNQDYVELLLVNHLLP
  soluble on expression in E. coli: not soluble

## MEDKVDVLIIGGGASGVTSGIQSARMGANTLILEESTWLGGMLTSAGVSAVDGNYRLPAGLWGEFKNRLSDYYGGLDSLKTGWVSNVLFEPSVGNKILHEMVAAENNLKVWKQACLEEVKRTGDEWVAKVKVEGQGVKTVRAKVMIDATELGDVAKMCGVKYDIGLEHHHHHH
  soluble on expression in E. coli: soluble

## MAHHHHHHMAEALHERHFFDKFIKMNIPDDYLDASRFRVIPDNQEVYVHKFQDKCLIIEILCFQNMNIQEKGNFYFYDLAKENDSIENVIITSNHSVPHSQGNYILLVGRQKIKKNNSSTHEPILLYICIFPLEEHNADIIITWNVPKEDMDIQPELETFNEMMQSFRILDYTLFV
  soluble on expression in E. coli: soluble

## MAAEEGAVIACHTKQEFDTHMANGKDTGKLVIIDFTASWCGPCRVIAPVFAEYAKKFPGAIFLKVDVDELKDVAEAYNVEAMPTFLFIKDGEKVDSVVGGRKDDIHTKIVALMGSAST
  soluble on expression in E. coli: soluble

## MSLSLENFGNFLTLDEKHSFIKKYFKEFYTKDFKLFASKDKHYRTRAELSFYHENDTLFYAMFDPKSKKKYIIEYLDFADEKICAFMPRLLEYLRQDNKLKEKLFGVEFLTTKQELSITLLYHKNIEDIKSNLENLSNILHINLIARSKGKKLIFKTENLRQTLNIQDRKIFYEFNNDCFIQPNTAINEKMITWVCEILNTQKRMDLLELYCGYGNFTLALAPFFFKILATEISKSNINFALKNCELNNTTNIHFARLSSEELSLAIKKEREFFRLKDIRLDDFNFSHVLVDPPRAGLDKSVIDLIKKYGNIIYISCNPMTLKENLKELSLTHRVEEFALFDQFVNTPHLECGVFLSKVEGHHHHHH
  soluble on expression in E. coli: soluble

## SVGGGGSGGGLLENANPLIYERSGERPVTAGEEDEEVPDSIDAREIFDLIRSINDPEHPLTLEELNVVEQVRIQVSDPESTVAVAFTPTIPHCSMATLIGLSIKVKLLRSLPQRFKMDVHITPGTHASEHAVNKQLADKERVAAALENTHLLEVVNQCLSARS
  soluble on expression in E. coli: soluble

## MEVHDSDAYKADEKEEEKAEEVELDDSDVESEEESEDEESDEDPEDGPAPRRFETFDDAKQFWAEHFEEELIPNEDLDLNCYLFNPNGEPVVPQPVKRAMNPRSLFNNQRPVQVYHQRWELLPNEEAEHWKEMWVQMRDEQREQIEEQLIEFRYSSKS
  soluble on expression in E. coli: not soluble

## MGLYLKGPSYKQVARILGMSHYRMKMLAMKKREVDDTVTKINGERRYLWAAIDVESREILAILEHHHHHH
  soluble on expression in E. coli: not soluble

## SPGRSSSNSGSTGFISFSGVESALSSLKNFQACINSGMDTASSVALDLVESQTEVSSEYSMDKAMVEFATLDRQLNHYVKAVQSTINHVKEERPEKIPDLKLLVEKKFLALQSKNSDADFQNNEKFVQFKQQLKELKKQCGLQADREADGTEGVDEDIIVTQSQTNFTCPITKEEMKKPVKNKVCGHTYEEDAIVRMIESRQKRKKKAYCPQIGCSHTDIRKSDLIQDEALRRAIENHNKKRHRHSE
  soluble on expression in E. coli: soluble

## GPGSMLDFLEQLQQLASVYAICGNAVSVMAGMSDTAEELTFRSYDSLEGASYICNLNEKALHTAKASLCDNADWSSFFREVQLAFNSGRVTVQPGNAHRVAVNAAAPVSADSKGLACSMEVHCLSGSGEKCATFVLERTTEDQQKYILESMLQAHHMYNHPKEYEQKLLHIMEAKEIACTKREALDRELVALNDNLTRNKHKQKINNERKEELLKKLGGYSTENTGNPWQAIQEQQQRTAGENTKSRLPSPLGNRTCKDFDLVLFRMIKSRWLSPEQCDASSPANRVVQPYSKEDLAIQVSQLSGSRAAIWKALDSIDSWSYRVFDVQAAMSGDDYLSLSTQTHGGSLLITMYALLCMHDFLQKFKIDEQIALNWISAVEASYHGNPYHNSMHAADVLQITDFIITQGGLAKRCDLSDIQVFSALLAASIHDFDHPGINNNFHIKTGSYLATLYNDRSVLENLHVSSVFELMKNPAFNILASFSDEQHHEVRETMIEMVLATDMGSHGKYVASLKGKMQEHSSFTQTAEQNLCLAIALKMADISNCGRPLDIYLRWGAKVSDEFYQQGDRERNLGLECSPFMDRLQPSLAKSQIAFMNYIITPFFEQVAELLPDMRFAVALVEENKAYWANHDDS
  soluble on expression in E. coli: soluble

## MGNWITSTFLRFDLFQRHQPNRFLEYTRVQHSNQSPAYSVRTAAEIVAHQRMKPNHSNDSDTDFSSDDEGCPKMTPHEEQQMFEREQHIAFSGRCHIGDPESCTQLRNEINSRCGPRPSTSNNMEFILNRDLQKRGTSISNPRTVARVLNSHLPNQKRRVDRVATKSFCTQYIQNGTKIVVASQDEKIRFYQRNPDKSKYRSKYMKSDELRVDQCGWSILDTAISLNGDLIAYGTWKDAVFVGKLDFTERQNITWFPIDLNGEPGRDHCAVFCVKFSDSSEQIVCGTSQYSIHVFDVEQRRRIRTIVNAHEDDVNSVCFADLGSNLIYSAGDDGLVKVWDKRAWSDGDVEPVGVFAGHRDGVTHVDSRQDERYLLSNSKDQTIKVWDLRKFSNMSGVEATRACVQSQHWDYRWQPAPPGLCQPVAGDTSVMTLRGHSVLHTLVRANFSPESTGRRYIYTGCARGEVVVYDIMSGTVSRRLKGHTAVVRECDWHPTENEIVSSAWDGVTTVWTWDERQEGVIAPYDHPNISQFGDEDSCDELFQPVKKQCRRQRKTMSSRGHPCSSSSISQN
  soluble on expression in E. coli: not soluble

## STSGANSSGSYLPSEIRSSKIDDNYLKELNEDLKLRKQELLEMLKPLEDKNNLLFQRLMSNLEEKQRSLQIMRQIMAGKGCEESSVMELLKEAEEMKQNLERKNKMLRKEMEMLWNKTFEAEELSDQQKAPQTKNKADLQDGKEKQQRKMEWVKYQEQNNILQNDFHGKVIELRIEALKNYQKANDLKLSLYLQQNFEPMQAFLNLPGSQGIRIV
  soluble on expression in E. coli: soluble

## MGSDKIHHHHHHMGEIVLAAKCTHVPTMLMSEQEGPVKGKRQAAIDGHLEIARRARALGADTVVICDTHWVINAGFHINANSRFQGLFTSNEFPQFIQNMPYDYEGNPGLGDAIAKEASARGAYTLAHHLDSLELEYGTLVPMRFMSREHKMKVVSVAAWCTVHDHDESRIVGEAIRAAVEASNSKVLLVASGSLSHKIWPNKDYAANNGTFTISSEFNRQMDLHVLEMWKRGDHATFLKMLGDYARFCCGEGSMHDTAMLYGALGWDSYDKPCEVVTEYFPSSGTGQTNVIFPV
  soluble on expression in E. coli: not soluble

## MQREKVDVLVIGAGPAGTVAASLVNKSGFKVKIVEKQKFPRFVIGESLLPRCMEHLDEAGFLDAVKAQGFQQKFGAKFVRGKEIADFNFSDQFSNGWNWTWQVPRGNFDKTLADEAARQGVDVEYEVGVTDIKFFGTDSVTTIEDINGNKREIEARFIIDASGYGRVIPRMFGLDKPSGFESRRTLFTHIKDVKRPVAAEMEGNRITAVVHKPKVWIWVIPFSNGNTSVGFVGEPSYFDEYTGTPEERMRAMIANEGHIAERFKSEEFLFEPRTIEGYAISASKLYGDGFVLTGNATEFLDPIFSSGATFAMESGSKGGKLAVQFLKGEEVNWEKDFVEHMMQGIDTFRSFVTGWYDGTLHAVFFAKNPDPDHKRMICSVLAGYVWDKNNPFVKKHNTILKTLAKVIQMGEEALEHHHHHH
  soluble on expression in E. coli: soluble

## GSHMRLDKFIAQQLGVSRAIAGREIRGNRVTVDGEIVRNAAFKLLPEHDVAYDGNPLAQQHGPRYFMLNKPQGYVCSTDDPDHPTVLYFLDEPVAWKLHAAGRLDIDTTGLVLMTDDGQWSHRITSPRHHCEKTYLVTLESPVADDTAEQFAKGVQLHNEKDLTKPAVLEVITPTQVRLTISEGRYHQVKRMFAAVGNHVVELHRERIGGITLDADLAPGEYRPLTEEEIASVV
  soluble on expression in E. coli: soluble

## MEVLHKPVLLRESVEFLTENGGKIYVDCTLGGGGHAKEILKKRKDIFLIGIDRDEEAIEIAKENLKEFEGRFSIYKANFKDLDLVLKEEGIDKVDGFLFDLGVSMYQLKGERGFTFQEDQPLDMRMDKEQTLTACKVVNNYPERELIRILKEYGEEKFAVRIAKAIVQRRKKKPIETTGELVDVILSVVPEYYKHGKIHPATRTFQAIRIEVNKELESLKEALEKTPYHFNSKGRLVVITFHSLEDRIVKHFIKEKEKEGIFRIITKKPVTPSEEEIRENPASRSAKLRVAEKI
  soluble on expression in E. coli: soluble

## GAKQVDVHDPVMTREGDTWYLFSTGPGITIYSSKDRVNWRYSDRAFATEPTWAKRVSPSFDGHLWAPDIYQHKGLFYLYYSVSAFGKNTSAIGVTVNKTLNPASPDYRWEDKGIVIESVPQRDLWNAIAPAIIADDHGQVWMSFGSFWGGLKLFKLNDDLTRPAEPQEWHSIAKLERSVLMDDSQAGSAQIEAPFILRKGDYYYLFASWGLCCRKGDSTYHLVVGRSKQVTGPYLDKTGRDMNQGGGSLLIKGNKRWVGLGHNSAYTWDGKDYLVLHAYEAADNYLQKLKILNLHWDGEGWPQVDEKELDSYISQRLK
  soluble on expression in E. coli: soluble
